Data taken from patent US20260364214A1, “MULTIVALENT FIBROBLAST ACTIVATION PROTEIN LIGANDS FOR TARGETED DELIVERY APPLICATIONS” (Philochem AG, priority 2022, published 2026).

Experiments:
HT-1080.hFAP tumors = assay: Quantitative in vivo MMAE release in tumor and healthy organs; parameters: species or system mouse (athymic Balb/c AnNRj-Foxn1); conditions: 250 nmol/kg; vs ESV6-GlyPro-MMAE and Bi-ESV6-GlyPro-MMAE
Text: The ESV6 binding moiety in monomeric, dimeric or trimeric form was conjugated to an identical linker-payload structure based on a Glycine-Proline linker and an MMAE cytotoxic moiety. The three conjugates: (i) ESV6-GlyPro-MMAE—corresponding to Conjugate 58a of EP3891138B1—, (ii) Bi-ESV6-GlyPro-MMAE—corresponding to Conjugate 11 of WO2022/171811A1, and (iii) Tri-ESV6-GlyPro-MMAE—corresponding to Conjugate 9 of the present invention—, were compared in a tumor mouse model to study the efficacy of release of the MMAE cytotoxic moiety into the tumor.
HT-1080.hFAP tumors were implanted into the right flank of athymic Balb/c AnNRj-Foxn1 mice and allowed to grow to an average volume of approximately 200 mm^3. Mice were injected with the three conjugates at a dose of 250 nmol/kg and sacrificed at different timepoints after administration. Fresh blood was collected in lithium heparin tubes (BD Microcontainer LH Tubes), vortexed, and centrifuged (15,000 g, 15 minutes). […] Peak areas of analytes and internal standards were integrated, and corresponding ratios were calculated. The ratios were then transformed into pmol/g of wet tissue using single-concentration external calibration points and corrected by the total weight of the sample analysed. The percentage of injected dose per gram (% ID/g) was finally calculated by normalizing the value based on the total dose injected into the mouse. […]

[1] = Tolerability (body weight change) of MMAE conjugates in HT-1080.hFAP tumor bearing mice; assay type: in vivo, mouse (athymic Balb/c AnNRj-Foxn1); conditions: 50 or 125 nmol/kg
Protocol: The anti-cancer efficacy of (i) ESV6-GlyPro-MMAE (50 or 125 nmol/kg) —corresponding to Conjugate 58a of EP3891138B1—, and (ii) Tri-ESV6-GlyPro-MMAE (50 or 125 nmol/kg) according to the present invention was assessed in athymic Balb/c AnNRj-Foxn1 mice bearing HT-1080.hFAP tumor in the right flank. Therapy experiments started when the average volume of established tumors had reached 80-100 mm3. Body weight of the animals and tumor volume were daily measured and recorded. Tumor dimensions were measured with an electronic caliper and tumor volume was calculated with the formula (long side, mm)×(short side, mm)×(short side, mm)×0.5. Animals were euthanized when one or more termination criterium indicated by the experimental license was reached. Prism 7 software (GraphPad Software) was used for data analysis.

SMILES: CC[C@@H](C)[C@@H]([C@@H](CC(=O)N1CCC[C@H]1[C@H](OC)[C@@H](C)C(=O)N[C@H](C)[C@@H](O)c1ccccc1)OC)N(C)C(=O)[C@@H](NC(=O)[C@H](C(C)C)N(C)C(=O)OCc1ccc(NC(=O)[C@@H]2CCCN2C(=O)CNC(=O)CCCCCN2C(=O)CC(SC[C@H](NC(=O)[C@H](CC(=O)O)NC(=O)[C@H](CCCCN)NC(=O)[C@H](CC(=O)O)NC(=O)CCC(=O)NC(COCCC(=O)NCCNC(=O)CCC(=O)Nc3cccc4c(C(=O)NCC(=O)N5CC(F)(F)C[C@H]5C#N)ccnc34)(COCCC(=O)NCCNC(=O)CCC(=O)Nc3cccc4c(C(=O)NCC(=O)N5CC(F)(F)C[C@H]5C#N)ccnc34)COCCC(=O)NCCNC(=O)CCC(=O)Nc3cccc4c(C(=O)NCC(=O)N5CC(F)(F)C[C@H]5C#N)ccnc34)C(=O)O)C2=O)cc1)C(C)C (stereo in doubt) [Tri-ESV6-GlyPro-MMAE]
- MMAE release in tumor and healthy organs, in words (HT-1080.hFAP tumors): cleaner biodistribution profile, with high and prolonged accumulation at the tumor site, and lower release in the healthy organs
- tolerability (body weight change), in words [1]: well tolerated
